Paper PMC5646979 (Molecular Medicine Reports, 2017)

Target: T1, Glu225Ala mutant RANKL (UniProt O35235 139-316, Glu225Ala)
T1 sequence (looked up): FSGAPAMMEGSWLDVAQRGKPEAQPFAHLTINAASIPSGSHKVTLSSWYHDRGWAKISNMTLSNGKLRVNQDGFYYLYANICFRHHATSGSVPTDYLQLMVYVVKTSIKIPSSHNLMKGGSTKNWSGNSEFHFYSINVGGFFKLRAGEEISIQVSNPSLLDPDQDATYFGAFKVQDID
Experiment: SPR

B1: Recombinant soluble RANK (receptor activator of nuclear factor κ-B) (receptor, murine, UniProt O35305 31-214, looked up)
chain: VTPPCTQERHYEHLGRCCSRCEPGKYLSSKCTPTSDSVCLPCGPDEYLDTWNEEDKCLLHKVCDAGKALVAVDPGNHTAPRRCACTAGYHWNSDCECCRRNTECAPGFGAQHPLQLNKDTVCTPCLLGFFSDVFSSTDKCKPWTNCTLLGKLEAHQGTTESDVVCSSSMTLRRPPKEAQAYLPS
  fold decrease of binding affinity against wild-type RANKL: 100 fold
